{"source": "paper PMC4615771", "binders": {"B1": {"name": "rDNA En (gel shift) (dsDNA)", "DNA 1": "TGGATCTTTTTTTTTTTTTTTCTTTTTTCCTCCA", "DNA 2": "TGGAGGAAAAAAGAAAAAAAAAAAAAAAGATCCA"}, "B2": {"name": "rDNA En (MST) (dsDNA)", "DNA 1": "TCTTTTTTTTTTTTTTTCTTTTTTCCTCC", "DNA 2": "GGAGGAAAAAAGAAAAAAAAAAAAAAAGA"}}, "key": {"PTOV1 eATmut [1]": {"biological_target": "T1, PTOV1 eATmut (Homo sapiens, UniProt Q86YD1 1-43, R20D;R22D)", "T1 chain": "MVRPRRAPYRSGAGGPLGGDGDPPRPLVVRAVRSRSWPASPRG", "experiment": "EMSA"}, "GPBP1 eAT-hook (eAT) [2]": {"biological_target": "T2, GPBP1 eAT-hook (eAT) (Homo sapiens, UniProt D4PHA4 38-80)", "T2 chain": "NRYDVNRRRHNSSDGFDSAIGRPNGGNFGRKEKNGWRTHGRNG", "experiment": "MST competition"}, "GPBP1 eAT-hook (eAT) [3]": {"biological_target": "T2, GPBP1 eAT-hook (eAT)", "experiment": "MST"}, "GPBP1 eATmut": {"biological_target": "T3, GPBP1 eATmut (Homo sapiens, UniProt D4PHA4 38-80, R59D)", "T3 chain": "T2 chain with R22D", "experiment": "MST"}, "PTOV1 eATmut [4]": {"biological_target": "T1, PTOV1 eATmut", "experiment": "MST"}, "GPBP1 eAT-hook (eAT) [5]": {"biological_target": "T2, GPBP1 eAT-hook (eAT)", "experiment": "MST"}}, "note": "Positions count from the first letter of the chain named.", "data": [{"binder": "B1", "values": [{"measurement": "binding result", "setting": "PTOV1 eATmut [1]", "result": "no binding"}]}, {"binder": "AGUUCCAUGAUGUUUUCAAACUCUAUUACCUACAUUAUUUGAAC (structured_RNA)", "note": "[RNA1]", "values": [{"measurement": "apparent K (half saturation)", "setting": "GPBP1 eAT-hook (eAT) [2]", "result": "373 ± 19", "unit": "nM"}, {"measurement": "apparent K (half saturation)", "setting": "GPBP1 eAT-hook (eAT) [3]", "result": "378 ± 18", "unit": "nM"}]}, {"binder": "B2", "values": [{"measurement": "binding result", "setting": "GPBP1 eATmut", "result": "no binding"}, {"measurement": "binding result", "setting": "PTOV1 eATmut [4]", "result": "no binding"}, {"measurement": "apparent K (half saturation)", "setting": "GPBP1 eAT-hook (eAT) [5]", "result": "7 ± 1.7", "unit": "µM"}]}, {"binder": "GAGAAACCGUGUAAACAAAACAUAACUGAGAGG (structured_RNA)", "note": "[RNA2]", "values": [{"measurement": "apparent K (half saturation)", "setting": "GPBP1 eAT-hook (eAT) [3]", "result": "938 ± 92", "unit": "nM"}]}]}
